B1: FGE-activated GALNS: N-Acetylgalactosamine 6-Sulfatase (lysosomal sulfatase) activated by FGE, for enzyme replacement therapy of Morquio disease MPS IVA (protein)
chain: APQPPNILLLLMDDMGWGDLGVYGEPSRETPNLDRMAAEGLLFPNFYSANPLCSPSRAALLTGRLPIRNGFYTTNAHARNAYTPQEIVGGIPDSEQLLPELLKKAGYVSKIVGKWHLGHRPQFHPLKHGFDEWFGSPNCHFGPYDNKARPNIPVYRDWEMVGRYYEEFPINLKTGEANLTQIYLQEALDFIKRQARHHPFFLYWAVDATHAPVYASKPFLGTSQRGRYGDAVREIDDSIGKILELLQDLHVADNTFVFFTSDNGAALISAPEQGGSNGPFLCGKQTTFEGGMREPALAWWPGHVTAGQVSHQLGSIMDLFTTSLALAGLTPPSDRAIDGLNLLPTLLQGRLMDRPIFYYRGDTLMAATLGQHKAHFWTWTNSWENFRQGIDFCPGQNVSGVTTHNLEDHTKLPLIFHLGRDPGERFPLSFASAEYQEALSRITSVVQQHQEALVPAQPQLNVCNWAVMNWAPPGCEKLGKCLTPPESIPKKCLWSH
B2: Drosophila FGE (SUMF1): Drosophila FGE (SUMF1) gene, fruitfly FGE ortholog (SEQ ID NO:51) (nucleic acid)
DNA: ATGACAACAATTATATTAGTCCTCTTTATTTGGATAGTTTTATTCAATGACGTATCCAGCGACTGTGGCTGCCAAAAGCTCGACCGGAAGGCCCCGGATATGCCGTCCATTTCCGGACAAGTGTGCCAGCAACGAGCACAGGGTGCACACAGCCACTACCGGGATTACTATGGCGAACTGGAGCCAAATATTGCGGACATGTCACTGCTTCCGGGAGGCACGGTTTACATGGGTACTGACAAACCGCACTTTCCGGCCGACCGCGAGGCTCCGGAACGGCAGGTGAAGCTGAATGACTTCTACATCGACAAGTATGAGGTTTCCAACGAAGCCTTTGCGAAGTTTGTTCTGCACACTAACTACACCACGGAGGCTGAGCGATATGGCGACAGTTTTCTGTTTAAGAGCCTTTTGAGCCCATTGGAGCAGAAGAACCTAGAGGACTTCCGAGTGGCGAGCGCTGTCTGGTGGTACAAAGTGGCCGGCGTGAACTGGCGACATCCAAATGGCGTGGACAGCGATATAGACCACTTAGGCCGACACCCGGTAGTGCACGTATCGTGGCGCGACGCTGTGGAGTACTGTAAGTGGGCCGGCAAGCGGTTGCCCAGCGAGGCGGAGTGGGAGGCGGCTTGCAGGGGCGGCAAGGAGCGCAAACTGTTTCCCTGGGGCAACAAGCTGATGCCAAGGAATGAACATTGGCTGAACATCTGGCAGGGAGACTTTCCCGATGGCAACCTGGCTGAAGATGGGTTTGAGTACACCAGCCCCGTGGATGCCTTCCGACAGAATATTTACGACCTGCACAACATGGTGGGCAACGTCTGGGAGTGGACGGCAGATCTGTGGGACGTAAATGACGTTAGCGATAATCCAAATCGGGTCAAGAAGGGCGGTTCTTATCTGTGTCACAAGTCCTACTGCTACAGGTACAGGTGCGCGGCACGCTCGCAGAACACAGAAGACAGTTCAGCCGGTAACCTGGGTTTTCGGTGCGCCAAGAATGCGTGA
modifications: Drosophila melanogaster
B3: murine FGE (SUMF1): murine FGE (SUMF1) gene, mouse FGE ortholog (SEQ ID NO:49) (nucleic acid, listed as Mus musculus)
DNA: ATGGTCCCCATTCCTGCTGGAGTATTCACAATGGGCACTGATGATCCTCAGATCAGGCAGGATGGAGAAGCCCCTGCCAGGAGAGTCACTGTTGATGGCTTTTACATGGACGCCTATGAAGTCAGCAATGCGGATTTTGAGAAGTTTGTGAACTCGACTGGCTATTTGACAGAGGCTGAGAAGTTTGGAGACTCTTTCGTCTTTGAAGGCATGTTGAGCGAGCAAGTGAAAACGCATATCCACCAGGCAGTTGCAGCTGCTCCATGGTGGTTGCCTGTCAAGGGAGCTAATTGGAGACACCCAGAGGGTCCGGACTCCAGTATTCTGCACAGGTCAAATCATCCGGTTCTCCATGTTTCCTGGAACGATGCTGTTGCCTACTGCACATGGGCGGGCAAGAGGTTGCCTACTGAGGCAGAGTGGGAATACAGCTGTAGAGGAGGCCTGCAGAACAGGCTTTTCCCCTGGGGCAACAAACTGCAGCCCAAAGGACAGCATTATGCCAACATCTGGCAGGGCAAGTTTCCTGTGAGCAACACTGGCGAGGATGGCTTCCAAGGAACTGCCCCCGTTGATGCCTTTCCTCCCAATGGCTATGGCTTATACAACATAGTGGGGAATGTGTGGGAGTGGACCTCAGACTGGTGGACTGTTCACCATTCTGTTGAGGAAACGTTCAACCCAAAGGGTCCCACTTCTGGGAAAGACCGAGTGAAGAAGGGTGGATCCTACATGTGCCATAAGTCCTATTGCTATAGGTACCGCTGTGCAGCTCGAAGCCAGAACACACCAGATAGCTCTGCATCCAACCTGGGATTCCGATGTGCAGCCGACCACCTGCCCACCGCAGACTGA

Legend:
[1] = Biodistribution study of IV FGE-activated GALNS in ICR (normal) mice; type: in vivo; details: single IV injection of 5 mg/kg, two hours after injection
Experimental: Four-week-old ICR (normal) mice were given a single IV injection of 5 mg/kg FGE-activated GALNS. Liver, femur (bone), heart, kidney and spleen were collected two hours after injection and prepared for histological examination. A monoclonal anti-human GALNS antibody was used to detect the presence of injected GALNS in the various tissues. […] Moreover, GALNS was readily observed in all tissues examined using a horseradish-peroxidase reporter system, […].

MKI mice = assay: Pharmacodynamic study in MKI mice (GALNS deficient, Morquio Knock-In); type: in vivo; details: weekly IV 2 mg/kg over 16 weeks
Description: The primary cause of skeletal pathology in Morquio patients is keratan sulfate (KS) accumulation in epiphyseal disk (growth plate) chondrocytes due to deficiency of the lysosomal sulfatase, GALNS. The primary objective of in vivo research studies was to determine whether intravenously (IV) administered FGE-activated GALNS was able to penetrate chondrocytes of the growth plate as well as other appropriate cell types in normal mice.
Four-week-old MKI or wild-type mice were given weekly IV injections (n=8 per group) through 20 weeks of age. Each weekly injection consisted of either 2 mg/kg FGE-activated GALNS or vehicle control (no injection for wild-type mice). All mice were sacrificed for histological examination at 20 weeks of age and stained using the following methods: hematoxylin and eosin for cellular morphology, alcian blue for detection of GAGs.

ARSA, ARSC and ARSE = assay: Co-expression of FGE (SUMF1) and sulfatase cDNAs in cell lines, sulfatase activities; type: cell-based, human; details: co-transfection with ARSA, ARSC and ARSE cDNAs in various cell lines
Description: To test the effect of FGE (SUMF1) on additional sulfatase activities in normal cells we overexpressed ARSA (SEQ ID NO:14), ARSC (SEQ ID NO:18) and ARSE (SEQ ID NO:22) cDNAs in various cell lines with and without co-transfection of the FGE (SUMF1) cDNA and measured sulfatase activities.
To test for functional conservation of the FGE (SUMF1) gene during evolution we overexpressed ARSA, ARSC and ARSE cDNAs in various cell lines with and without co-transfection of the […] and measured sulfatase activities.

Row | Molecule | GALNS delivery to bone growth plate chondrocytes (FITC reporter system) [1] | presence of injected GALNS in tissues (monoclonal anti-human GALNS antibody) ([1]; liver, femur (bone), heart, kidney and spleen) | chondrocytes in the calcification zone of the growth plate (MKI mice) | vacuolized chondrocytes of the hypertrophic and proliferating zones of the growth plate (MKI mice) | clearance of accumulated GAG (alcian blue staining) (MKI mice; soft tissues (liver, heart, kidney and spleen)) | activity of FGE homologs on overexpressed human sulfatases (ARSA, ARSC and ARSE)
1 | B1 | observed in all growth plate sections examined | detected in all tissues examined | reduction of vacuolization | unaffected | reduced or absent alcian blue staining | –
2 | B2 | – | – | – | – | – | less efficient
3 | B3 | – | – | – | – | – | active on all three human sulfatases

Source: patent US8227212B2, “Cell that expresses a sulfatase and a formylglycine generating enzyme” (Shire Human Genetic Therapies, Inc., priority 2003, dated 2012)
